# Results published in the supplement of paper PMC12042874.
# ± gives the uncertainty stated by the source.
# Assay: amyloid nucleation score (Sup35N fusion, yeast selection) (log enrichment); library NNK3; higher = more nucleation; inactive = no reads after selection
# Procedure, shortened: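 Psi-negative yeast expressed Sup35N fused to peptides of 20 random codons. They were induced 24 hours with 100 μM copper sulfate, grown 7 days at 30°C without adenine and uracil, and their plasmid inserts from input and output were Illumina-sequenced. The nucleation score is the DiMSum log enrichment of output over input reads, centred on the mode score of non-aggregating sequences. Sequences with under 100 input reads were excluded.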
row,Substance,amyloid nucleation score
1,RFIVS,inactive
2,SKFSCIRSYYG,inactive
3,LIVFWDGFMCT,inactive
4,CRYSYSELKFVLFSGVGTSD,inactive
5,KDLKMYRGF,inactive
6,AVSSSLNWLGFVRISGSRY,-0.432 ± 1
7,YCSVLELKSYLTLSLSKWKW,inactive
8,MFKNILCVHVLTSAGT,inactive
9,RHMFVSSSKRWKFSSNTYRT,inactive
10,AGRNMSLCNLHLILLCTSKC,inactive
11,CRFVNLFGCVGS,inactive
12,WLPPRVMLFTPLRQWLYR,inactive
13,LRDTGWLIGLMCCSIQIGSG,2.13 ± 0.069
14,GLTTLCSVPKQYVKYFVVTH,inactive
15,WNMNYVQFDGNVLVNAD,inactive
16,RVRLIH,inactive
17,FSTWEELLTSHLKCFTAGWG,-0.458 ± 1.4
18,EMPLF,inactive
19,FNVLSDPACVRPGLVVRVSE,inactive
20,VYDDSTIDT,inactive
21,SQTIYGI,inactive
22,WVIIIYRYLFRNISAKQSRL,inactive
23,FISHSCYGWILRGCQTVGFW,-0.552 ± 0.98
24,AWRAISDKTDGGSYDKSVIV,-0.364 ± 0.8

row,Substance,amyloid nucleation score
1,MCFKTEYSRSPGYIAN,inactive
2,CKILHDRHMYVCLFAYCFVC,inactive
3,FWVNVCVFMGRVW,inactive
4,PFDVHKRR,inactive
5,RDRGKY,inactive
6,SSASYVHCDFYIFGGLAPSN,2.8 ± 0.063
7,NAYSSLQWREIVSHIYQSCQ,inactive
8,ILLSSHSSECNNALIRRF,1.46 ± 0.074
9,FANKTRYSPWSCNPVFWYDR,inactive
10,QGYMFFCHYIDICS,inactive
11,CWSSIYSNDQDFYWKSPLLS,inactive
12,YPNMWLDEYRMVFAYYLPCG,inactive
13,GLRFPMRWDCGVRVNYRKSR,inactive
14,GSFTASFDGFQGSIMVERGG,inactive
15,FQLWVKRTYNAEGNLYSPDD,inactive
16,LNLCTRLVFNPVTFQGNTFK,inactive
17,YYFFRKYEENFSGSNTGLVI,inactive
18,SGTHNKVSTRMFGWNFI,0.584 ± 0.11
19,VRIKFCAWKLGYGSTGNVHI,0.657 ± 0.2
20,LSWSGNSSAYKSIIR,inactive
21,RYWWYHSYRNGSGSLESYGV,inactive
22,IGFCKDLVTCRTDYYAQLDR,inactive
23,FIWQMGNNPVVVAFSCRAGW,2.56 ± 0.076
24,SIRTWRVPRDCSAYFNGLSW,inactive

row,Substance,amyloid nucleation score
1,CTHHKNACL,inactive
2,CRVPSLVIC,inactive
3,FVFGN,inactive
4,SCTVKLDCNAVDSVSMDDVD,inactive
5,INFLCTDAFTMKFTGAYGKH,2.4 ± 0.054
6,ITQLFSSLRADYAAQYYLGV,inactive
7,IIWAVRKGTPSSRRVTWAGK,inactive
8,SISPFN,inactive
9,LRWYPVDMI,inactive
10,GTQVYTGGRVYERLRVMSCV,inactive
11,YDGLSSAMGEHIRNNNCLLV,inactive
12,SSECSMALIL,inactive
13,APSYISRFVLLTDMPEAQTL,inactive
14,IWCSRAGVRWVEMNVEQVYW,inactive
15,DMINSGQISDHVLD,inactive
16,KQTFKYTGVDHTVT,inactive
17,LYAFICTTYTCVVN,inactive
18,PEMFGRSWARDTRKVTVLAS,inactive
19,RCLAPGCRIVNRFLSINYKS,inactive
20,RYLDQLI,inactive
21,DWSWFK,inactive
22,SFSYNAQLYTQVVMSRYKMR,-0.193 ± 0.48
23,NWLVSWFLFFPNSPLFCYHW,inactive
24,ILFEFTTPNLSYIFCFFTIH,inactive

row,Substance,amyloid nucleation score
1,LLLNMM,inactive
2,YGGFLKFSRYGIGRYIHLQL,inactive
3,GSRIGGVL,inactive
4,TYKIIRYFLNLICSFRGPMP,inactive
5,DRPRQRTAFVYRQWLMYYQ,inactive
6,ASCSGIC,-0.956 ± 2.4
7,DLVMDFQ,inactive
8,LMSNHCGKYWRHFSWIMTVF,inactive
9,CYSCSMLFISWLCRYRSTQY,1.02 ± 0.12
10,KIFTWIRCNLSIFYSYGFKS,inactive
11,KIYANHLL,inactive
12,VFYIYSRW,1.69 ± 0.091
13,LRVLAP,0.815 ± 0.16
14,VSWLCSMKDICPHCDEINYR,1.8 ± 0.062
15,VSFELYMHFSSFSYFGMLKG,1.16 ± 0.13
16,RFFAIL,inactive
17,CSGSDKVWTCLFLYAKKPRW,inactive
18,LELGTLTNRSLCFCEILPFC,inactive
19,CLSRSCSFFYKATYLRSEMM,inactive
20,RLCSFTRYLNGATSANNVKL,inactive
21,RFNMCGEYGKVHGLGW,inactive
22,PVTDLWLTFS,inactive
23,FPGSS,inactive
24,RRTMFPAMIIS,inactive

row,Substance,amyloid nucleation score
1,GFMLWTHKKLARPEATAV,inactive
2,WNSLMAK,inactive
3,YWMPIDLGFSSLNWPESSRS,inactive
4,QCDVCVCCVARAEAVRRILG,2.33 ± 0.075
5,IVSWKVRSVSLKLLLSCAPD,inactive
6,YVFSTWSSP,inactive
7,WEHLGETYGVFMSTEDRESG,inactive
8,WVNFRSPFLNGANA,-0.686 ± 0.68
9,NAMCR,inactive
10,GVVYWVIRKTIEGSLQFASI,inactive
11,MNNCTDLYLLVNPRIRFGVM,inactive
12,CDWRESVFRRAVTLPVALWM,inactive
13,VLVCYC,inactive
14,VGASQRVYSLLST,inactive
15,VSRRFVIM,0.45 ± 0.17
16,RRAAEKFFNEPTWERHLVSG,inactive
17,KWNRLLVMRLAVIECRARVA,0.033 ± 0.9
18,SSSNTRFVGAERCVGSWCGS,inactive
19,APKCNSTMCSCALMTLFLIS,2.14 ± 0.085
20,SVTLRLVFRCP,1.05 ± 0.15
21,MCAHVNVMRNSFYRRNAPNY,0.603 ± 0.16
22,KKGGLLLLNKYN,inactive
23,TMMACEANWYRSKNIEFVYA,inactive
24,GTIRDSGSHYKVISF,inactive
